Results from the supplement of paper PMC12764529.
± gives the half width of the 95% confidence interval.

Columns and labels:
[1] = folding stability dG unfold from trypsin proteolysis; higher = more stable
Summary of the method: (§1)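 Unfolding free energy was derived, per protease or combined, against a sequence-predicted unfolded-state K50 and a shared folded-state K50, starting from K50 inferred by Bayesian fitting of sequencing counts. Digestion with trypsin and chymotrypsin was carried out on designed mini-proteins under 80 residues without cysteine in a PA-tagged cDNA display construct. Only designs with AlphaFold2 dimer inter-PAE above 15 were kept.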

[2] = folding stability dG unfold from chymotrypsin proteolysis; higher = more stable
Summary of the method: as §1

[3] = folding stability dG unfold (combined trypsin and chymotrypsin); higher = more stable
Summary of the method: as §1

Sequence: SAGGSAGGSAGGSNMYIEIDEIERNPDDWYQITVKIYNPDNGEKEKITFYMPPGQEIKISAGGSAGGSAGGS [r4_133_TrROS]
- folding stability dG unfold [1]: 0.896 ± 0.076 kcal/mol
- folding stability dG unfold [2]: 1.51 ± 0.12 kcal/mol
- folding stability dG unfold [3]: 1.25 ± 0.2 kcal/mol

Sequence: SAGGSAGGSAGSMQTEVTFERGPGRLTTTTTTKFPDNRWSTTTSTSPVPARPPLPPAPVLLSAGGSAGGSAG [r3_68_JUSTAS]
- folding stability dG unfold [1]: -0.817 ± 0.52 kcal/mol
- folding stability dG unfold [2]: -0.709 ± 0.94 kcal/mol
- folding stability dG unfold [3]: -0.416 ± 0.22 kcal/mol

Sequence: SAGGSAGGKNNETRRDPNNGNTYTRTGGKWEMEPVPPPIEIVPWPIWDPNGQDLELMWRVSINLSAGGSAGG [r6_313_TrROS]
- folding stability dG unfold [1]: 1.06 ± 0.2 kcal/mol
- folding stability dG unfold [2]: 0.497 ± 0.49 kcal/mol
- folding stability dG unfold [3]: 0.838 ± 0.33 kcal/mol

Sequence: SAGGSAGGSMPDLRPAPVPALVIPLDLPLEEAIEKARELLDLPEDTEIPIAEFDPETGKIVIASAGGSAGGS [r12_815_TrMRF]
- folding stability dG unfold [1]: 0.533 ± 0.024 kcal/mol
- folding stability dG unfold [2]: 1.94 ± 0.051 kcal/mol
- folding stability dG unfold [3]: 1.57 ± 0.039 kcal/mol

Sequence: SALDAKEIAEEFMKKFPPNFRDITVDVENTGNKRKIKIMFRMPNRYWTQEFDLDDGKIEIEPINPGQPLSAG [r14_737_TrROS]
- folding stability dG unfold [1]: 0.862 ± 0.091 kcal/mol
- folding stability dG unfold [2]: 0.368 ± 0.15 kcal/mol
- folding stability dG unfold [3]: 0.672 ± 0.066 kcal/mol

Sequence: SAGGSAGGSKKEEFYKITVYSPNKKAEEIAKKIQEETGTEIVEVKAEKFKDGGIKVIALVKKTSAGGSAGGS [r12_359_TrMRF]
- folding stability dG unfold [1]: -0.213 ± 0.19 kcal/mol
- folding stability dG unfold [2]: -0.558 ± 0.67 kcal/mol
- folding stability dG unfold [3]: -0.0936 ± 0.48 kcal/mol

Sequence: SAGGSAGGSAKTVTLTIEITNEDGKKFTAKIEVTYDEETGEFTVRIEIFDKNGKLIAEFPLSAGGSAGGSAG [r3_154_TrROS_Hall]
- folding stability dG unfold [1]: 3.72 ± 0.17 kcal/mol
- folding stability dG unfold [2]: 5.1 ± 0.1 kcal/mol
- folding stability dG unfold [3]: 4.98 ± 0.2 kcal/mol

Sequence: SAGGSAGMPDIIYKVKITVTSSGKVTTLDITLPSEEEVKKAIEELKKKGYTNIKPEIEKFLKSELGSAGGSA [r15_1015_JUSTAS]
- folding stability dG unfold [1]: 1.15 ± 0.12 kcal/mol
- folding stability dG unfold [2]: 2.13 ± 0.066 kcal/mol
- folding stability dG unfold [3]: 2 ± 0.19 kcal/mol

Sequence: SAGGSAMVVRITTKDGKKIEITVKSVEELLEALKELGVEEVKLEKLPDGKELKLTVTLKDGKIEILSAGGSA [r15_632_TrROS_Hall]
- folding stability dG unfold [1]: 3.14 ± 0.087 kcal/mol
- folding stability dG unfold [2]: 2.8 ± 0.077 kcal/mol
- folding stability dG unfold [3]: 2.92 ± 0.054 kcal/mol

Sequence: SAGGGSRTLTRGDKTYVFTTAPPPTGGRYVTLTVVDPATGAPAPVYTMDVTDGTDEEALARLLAAPLSAGGS [r16_378_JUSTAS]
- folding stability dG unfold [1]: -0.038 ± 0.11 kcal/mol
- folding stability dG unfold [2]: 0.847 ± 0.091 kcal/mol
- folding stability dG unfold [3]: 0.581 ± 0.038 kcal/mol

Sequence: SAGGSAGGSAGPMYIITHTSPNEPIEFIFPPDDAEEFLKKLKLPPNMNIKVEPIDPDDMKSAGGSAGGSAGG [r17_395_TrROS]
- folding stability dG unfold [1]: 0.0355 ± 0.07 kcal/mol
- folding stability dG unfold [2]: 0.715 ± 0.21 kcal/mol
- folding stability dG unfold [3]: 0.367 ± 0.18 kcal/mol

Sequence: SNFPPGQQIKFTFRLPDNGMKIKIEVHVHPDGYVQVRMERENPDNGKRVKITFYVPGPTLDEILDFIEQFSA [r9_618_TrROS]
- folding stability dG unfold [1]: 2.97 ± 0.09 kcal/mol
- folding stability dG unfold [2]: 3.852 ± 0.038 kcal/mol
- folding stability dG unfold [3]: 3.52 ± 0.08 kcal/mol

Sequence: SKEEKPPEVKTFKVKKIEFDPETKKITVEVDGKKLTLELKPGQEVEIFKDGKEIRVVRLAPPPPEKKEKKSA [r9_551_TrROS_Hall]
- folding stability dG unfold [1]: 1.94 ± 0.36 kcal/mol
- folding stability dG unfold [2]: 2.95 ± 0.27 kcal/mol
- folding stability dG unfold [3]: > 6 kcal/mol

Sequence: SAGGSAGGSKKVTIVLSKEELRELFENLTPEQIAELLKKKFPKIKRVEVKEVDGKLVIEVEVESAGGSAGGS [r12_590_TrROS_Hall]
- folding stability dG unfold [1]: 3.15 ± 0.26 kcal/mol
- folding stability dG unfold [2]: 3.59 ± 0.1 kcal/mol
- folding stability dG unfold [3]: 3.43 ± 0.17 kcal/mol

Sequence: SAGGSAGGKTLELEVEALDPITGEPYKVKIIYDPETGTATILVTHPNGKKSLFTVPAGEALKLLSAGGSAGG [r6_219_TrMRF]
- folding stability dG unfold [1]: 2.63 ± 0.19 kcal/mol
- folding stability dG unfold [2]: 3.456 ± 0.033 kcal/mol
- folding stability dG unfold [3]: 3.28 ± 0.13 kcal/mol

Sequence: SAGGMKIVSESTDPSVPTSYVTIEITDPKTGKKTTIKLPQDPAAGTGSPEALAKEVREKLKLPEGVELSAGG [r13_362_JUSTAS]
- folding stability dG unfold [1]: 0.221 ± 0.083 kcal/mol
- folding stability dG unfold [2]: 1.01 ± 0.053 kcal/mol
- folding stability dG unfold [3]: 0.814 ± 0.073 kcal/mol

Sequence: SAGGSAGGTPKLAETRKNGKKVLAPVEVDPETGVITVTPPDGTTEVVPASRPPPFIEEDPSLGSSAGGSAGG [r6_174_JUSTAS]
- folding stability dG unfold [1]: -0.252 ± 0.042 kcal/mol
- folding stability dG unfold [2]: 1.44 ± 0.037 kcal/mol
- folding stability dG unfold [3]: 1.03 ± 0.087 kcal/mol

Sequence: SAGGMKIIPLEEAEKFIEANPDKELVIGVRPGESLYLFVVKRDPDKPFNIEVLEVIEFDPDGNGRHLPSAGG [r13_481_TrMRF]
- folding stability dG unfold [1]: 1.14 ± 0.11 kcal/mol
- folding stability dG unfold [2]: 1.6 ± 0.1 kcal/mol
- folding stability dG unfold [3]: 1.3 ± 0.16 kcal/mol

Sequence: SAGGKKKVKITKITSIDKKNGVITLEIEDPKTKKKYKIKAKVVKLKNGKKLLVIEIEVNGKKIKIVFKSAGG [r13_993_TrROS_Hall]
- folding stability dG unfold [1]: 2.49 ± 0.15 kcal/mol
- folding stability dG unfold [2]: 4.23 ± 0.16 kcal/mol
- folding stability dG unfold [3]: 3.81 ± 0.47 kcal/mol

Sequence: SAGGSADEVEITLELEVELAPGQKTLTFKLLNLPPGLKFEVEEVELKVVEEDGKLRVEATIRIKKDSAGGSA [r15_321_TrROS_Hall]
- folding stability dG unfold [1]: 2.86 ± 0.17 kcal/mol
- folding stability dG unfold [2]: 4.34 ± 0.17 kcal/mol
- folding stability dG unfold [3]: 3.72 ± 0.16 kcal/mol

Sequence: SAGMKIKVLLVVKADPEELEKLEEILEKIKEESDIKKIEPLAYFPNTGIAVVLVEADPEAFEKILEAAGSAG [r5_193_TrMRF]
- folding stability dG unfold [1]: 1.78 ± 0.032 kcal/mol
- folding stability dG unfold [2]: 2.58 ± 0.03 kcal/mol
- folding stability dG unfold [3]: 2.29 ± 0.095 kcal/mol
